In patent publication US20150018530A1:

Key:
[1] = biological target: EGF receptor on A431 cells (UniProt P00533); test: flow cytometry on A431 cells; concentration of mAb108 used in the competition assay
[2] = biological target: EGF receptor on A431 cells (UniProt P00533); test: Flow cytometry binding curve of the Fab on A431 cells (binding conditions 'as described previously'); y axis Median rises from about 20 to about 790
[3] = biological target: EGF receptor on A431 cells (UniProt P00533); test: competition flow cytometry on A431 cells; scFv pre-bound, mAb108 at 7.5 nM as competitor, APC anti-mouse detection
[4] = biological target: EGF receptor on A431 cells (UniProt P00533); test: Competition flow cytometry on A431 cells: cells incubated with the scFv at varied concentration and washed, then mAb108 at 7.5 nM, detected with APC-labelled anti-mouse antibody; y axis Median
[5] = biological target: EGF receptor on A431 cells (UniProt P00533); test: flow cytometry on A431 cells; binding conditions 'as described previously' (competition with mAb108)

wild type scFv-108 (periplasmic), sequence (scFv): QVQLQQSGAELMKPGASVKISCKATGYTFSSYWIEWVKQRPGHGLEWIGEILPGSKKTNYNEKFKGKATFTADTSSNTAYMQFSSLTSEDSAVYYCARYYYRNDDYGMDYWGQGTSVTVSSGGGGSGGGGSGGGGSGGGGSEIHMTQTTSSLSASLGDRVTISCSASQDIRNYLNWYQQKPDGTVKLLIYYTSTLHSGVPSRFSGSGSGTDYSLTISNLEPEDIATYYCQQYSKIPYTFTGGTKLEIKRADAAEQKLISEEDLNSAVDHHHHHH

Row | Substance | IC50 relative to the wild type scFv [3] [x] | further results
1 | EGFR-specific monoclonal antibody mAb108 (ATCC #HB 9764) |  | EC80 [1]: 7.5 nM
2 | Fab-108 Thr204 pAF (from UniProt P01834 1-107) |  | EC50 [2]: 6.2 nM
3 | scFv-108 Leu156pAF | 1.8 | 
4 | scFv-108 Ser136pAF | 1.6 | IC50 [4]: 13.1 nM
5 | wild type Fab-108 (from UniProt P01834 1-107) |  | EC50 [5]: 3 nM
6 | wild type scFv-108 (periplasmic) |  | IC50 [3]: 8.1 nM

Continued, in another order:

Row | IC50 relative to the wild type scFv [3] [x] | Substance | further results
7 | 2.6 | scFv-108 His144pAF | 
8 | 1.3 | scFv-108 Ser131pAF | 
9 | 6.3 | scFv-108 Ser136pAF-5K PEG | IC50 [4]: 51 nM
10 | 1.8 | scFv-108 Ser193pAF | 
